Tests used:
[1] = target: control (H1 Bri18 wild type HA ectodomain-foldon) (Influenza A virus A/Brisbane/02/2018 (H1N1)); test: BLI (Octet) after 7D37C and trypsin; HA on Ni-NTA tips
[2] = target: control (H1 Bri18 wild type HA ectodomain-foldon) (Influenza A virus A/Brisbane/02/2018 (H1N1)); test: BLI (Octet), HA-foldon-His on Ni-NTA tips, IgG in solution

CR9114 monoclonal antibody (IgG) was tested. Which Octet response (nm) [1] did it give?
The Octet response (nm) was 0.693 nm.

And the Octet response (nm) [2]?
Its Octet response (nm) is 0.826 nm.

Which results are given for FI6v3 monoclonal antibody (IgG)?
Octet response (nm) [1]: 0.697 nm; Octet response (nm) [2]: 0.856 nm

— patent US20260207732A1
